For one substance, IL-10 mRNA (quantitative RT-PCR) in hTLR5-transfected HEK293 cells, against the hTLR5 control (data not shown) results are on record in article PMC4863622.

For the assay, the target named is human Toll-like receptor 5, V5-tagged (hTLR5-V5) (human) (UniProt O60602).
Chain of UniProt O60602 (O60602 21-858): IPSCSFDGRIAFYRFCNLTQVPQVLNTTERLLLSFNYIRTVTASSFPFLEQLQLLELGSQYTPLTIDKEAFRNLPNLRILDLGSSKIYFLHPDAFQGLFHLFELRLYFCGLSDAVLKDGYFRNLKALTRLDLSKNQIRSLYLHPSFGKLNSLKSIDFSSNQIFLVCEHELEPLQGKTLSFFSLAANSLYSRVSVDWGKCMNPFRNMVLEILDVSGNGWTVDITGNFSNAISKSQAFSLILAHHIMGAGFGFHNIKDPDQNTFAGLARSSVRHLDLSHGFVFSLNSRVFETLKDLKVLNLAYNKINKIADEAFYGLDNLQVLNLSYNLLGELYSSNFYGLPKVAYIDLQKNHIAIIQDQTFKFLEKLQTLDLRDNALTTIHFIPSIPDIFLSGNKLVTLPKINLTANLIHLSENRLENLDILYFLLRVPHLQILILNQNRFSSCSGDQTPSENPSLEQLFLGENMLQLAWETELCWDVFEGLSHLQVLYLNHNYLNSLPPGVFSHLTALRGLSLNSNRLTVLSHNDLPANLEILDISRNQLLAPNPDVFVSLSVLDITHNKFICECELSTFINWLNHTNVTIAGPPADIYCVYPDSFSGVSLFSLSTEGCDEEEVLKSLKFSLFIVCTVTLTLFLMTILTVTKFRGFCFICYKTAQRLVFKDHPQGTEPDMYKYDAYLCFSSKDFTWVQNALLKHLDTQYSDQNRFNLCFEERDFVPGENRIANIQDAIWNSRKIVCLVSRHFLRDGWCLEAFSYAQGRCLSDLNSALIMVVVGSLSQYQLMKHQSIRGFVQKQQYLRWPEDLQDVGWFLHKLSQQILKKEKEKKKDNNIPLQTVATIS

Take “Campylobacter jejuni FlaC, recombinant 6×His-FlaC–6×His (from UniProt P96747 1-249) (natural protein)”: the IL-10 mRNA (quantitative RT-PCR) in hTLR5-transfected HEK293 cells, against the hTLR5 control (data not shown) was found to be 6 fold.
